The values that follow come from paper PMC6591361, “Recombinant production of human α2-macroglobulin variants and interaction studies with recombinant G-related α2-macroglobulin binding protein and latent transforming growth factor-β2” (Scientific Reports, 2019).

What all share (conditions): both partners purified
The target in assay [1] is T1, native authentic human α2-macroglobulin (human, UniProt P01023 24-1474, thioester bond intact (native form)).
T1 construct: human α2-macroglobulin, UniProt P01023, 1,474-residue precursor; as secreted it lacks the signal peptide (recombinant constructs begin at S24); Tetramer (680.6 kDa by SEC-MALLS); glycosylated; also called hα2M; native hα2M; source: purified from human blood plasma of individual donors (PEG 4,000 precipitation, zinc-chelating resin, IEC, SEC)
T1 sequence (looked up): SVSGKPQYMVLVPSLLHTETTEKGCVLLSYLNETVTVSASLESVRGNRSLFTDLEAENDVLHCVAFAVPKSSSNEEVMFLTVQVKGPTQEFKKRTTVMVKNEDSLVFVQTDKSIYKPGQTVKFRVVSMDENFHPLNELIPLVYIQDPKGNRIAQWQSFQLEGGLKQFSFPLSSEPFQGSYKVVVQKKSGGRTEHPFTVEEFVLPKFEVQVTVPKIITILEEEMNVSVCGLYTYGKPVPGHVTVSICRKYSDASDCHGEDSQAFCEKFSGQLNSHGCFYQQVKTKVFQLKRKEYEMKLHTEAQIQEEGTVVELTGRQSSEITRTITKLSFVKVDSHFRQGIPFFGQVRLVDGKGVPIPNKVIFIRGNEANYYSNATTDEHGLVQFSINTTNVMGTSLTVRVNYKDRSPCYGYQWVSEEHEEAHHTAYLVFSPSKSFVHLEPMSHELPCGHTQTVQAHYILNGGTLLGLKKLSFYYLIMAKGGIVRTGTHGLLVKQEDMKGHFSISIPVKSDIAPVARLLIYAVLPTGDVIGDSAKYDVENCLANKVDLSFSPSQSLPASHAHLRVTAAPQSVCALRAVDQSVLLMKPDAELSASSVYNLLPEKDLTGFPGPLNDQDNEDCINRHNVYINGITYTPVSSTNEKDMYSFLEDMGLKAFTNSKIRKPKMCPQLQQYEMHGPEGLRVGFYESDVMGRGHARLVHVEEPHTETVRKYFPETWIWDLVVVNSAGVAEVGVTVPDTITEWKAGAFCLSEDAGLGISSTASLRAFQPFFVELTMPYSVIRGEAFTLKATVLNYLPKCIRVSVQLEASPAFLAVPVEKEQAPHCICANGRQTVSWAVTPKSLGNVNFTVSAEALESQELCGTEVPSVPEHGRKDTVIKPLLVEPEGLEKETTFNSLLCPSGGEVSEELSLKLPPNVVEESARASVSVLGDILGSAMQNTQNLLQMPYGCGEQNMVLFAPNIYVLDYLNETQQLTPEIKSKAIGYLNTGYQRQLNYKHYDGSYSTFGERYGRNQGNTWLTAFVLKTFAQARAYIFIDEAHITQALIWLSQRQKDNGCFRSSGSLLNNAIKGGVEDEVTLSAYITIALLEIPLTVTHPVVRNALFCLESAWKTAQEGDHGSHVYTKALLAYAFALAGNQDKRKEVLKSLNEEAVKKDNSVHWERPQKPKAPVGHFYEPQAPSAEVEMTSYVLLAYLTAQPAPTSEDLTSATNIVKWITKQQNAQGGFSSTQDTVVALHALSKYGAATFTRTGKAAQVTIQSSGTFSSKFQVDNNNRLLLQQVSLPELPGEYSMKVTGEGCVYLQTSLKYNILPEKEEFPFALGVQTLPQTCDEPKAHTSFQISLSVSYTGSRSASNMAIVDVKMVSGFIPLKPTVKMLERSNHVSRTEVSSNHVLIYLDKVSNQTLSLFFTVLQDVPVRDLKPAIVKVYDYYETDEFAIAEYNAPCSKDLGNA
The assay can be described thus: SPR; as a1, affinity analysis: steady-state responses (Req) against analyte concentration, 1:1 model.

The target in assay [2] is T2, methylamine-induced authentic human α2-macroglobulin (human, UniProt P01023 24-1474, thioester bond opened by methylamine, producing a free cysteine).
T2 construct: human α2-macroglobulin, UniProt P01023; plasma protein as m1, induced form; Tetramer (684.1 kDa by SEC-MALLS); also called induced hα2M; induced authentic hα2M
T2 sequence (looked up): T1 sequence (looked up)
The assay is described as above.

Assay [3] concerns the target T1, native authentic human α2-macroglobulin. The assay can be described thus: SPR; Strep-tagged GRAB (9.7 nM) captured on Streptactin XT on a CM5 chip; analytes injected in multicycle runs (4–600 nM authentic hα2M, 75–1,200 nM N-hα2M and C-hα2M); HBNS (10 mM HEPES, 150 mM sodium chloride, pH 7.4), 37 °C; kinetic fit, 1:1 Langmuir model. A general note: SPR reads the build-up and loss of mass on a sensor chip optically.

For assay [4] the target is unchanged. The assay can be described thus: SEC-MALS; SEC-MALLS, Superose 6 10/300, buffer J (20 mM sodium phosphate, 150 mM sodium chloride, pH 7.4), 25 °C; GRAB to authentic hα2M at a molar ratio of 4:1; triplicate. (In general: SEC sorts molecules by how far they enter the pores of the column.)
Assay [5] deals with T2, methylamine-induced authentic human …. The assay is described as above.

B1: Strep-tagged G-related α2M-binding protein (GRAB), V34-N181 (domain or fragment)
chain: GAMVDSPIEQPRIIPNGGTLTNLLGNAPEKLALRNEERAIDELKKQAIEDKEATTAIEAASSDALEALADQTDALQSEEAAVVKADNAASDALEALADQTDALQSEEAEVVQSDNAASDAWEKAATPIALDVKKTKDTKPVVKKEERQNVN
notes: residues left at the N-terminus after TEV cleavage, from the cloning strategy; also called Strep-tagged GRAB; pCri-H6-TEV-GRAB-STREP; source: E. coli BL21 (DE3), purified (Streptactin XT, IEC, SEC); not shown: His6, N-terminal, cleaved; Strep-tag, C-terminal, kept
Take B1: the Kd in assay [1] was 34.5 nM; in assay [2], 94.6 nM; in assay [3] it was 14.3 nM. Further, in assay [3], the koff is 0.0019 s⁻¹. This molecule displayed a kon in assay [3] of 132000 M⁻¹ s⁻¹.

B2: G-related α2M-binding protein (GRAB), V34-N181, untagged (domain or fragment)
chain: B1 chain
notes: residues left at the N-terminus after TEV cleavage, from the cloning strategy; the theoretical mass of 15.8 kDa that it compares with fits the untagged form (surmise); also called pCri-H6-TEV-GRAB; source: E. coli BL21 (DE3), purified (Ni-NTA, TEV cleavage, reverse Ni-NTA, IEC, SEC); not shown: His6, N-terminal, cleaved
Turning to B2, the “stoichiometry N” value in assay [4] was found to be 1.7 GRAB per hα2M tetramer; in assay [5], 2 GRAB per hα2M tetramer.

The Kd is the concentration at which binding is half-saturated. As a reminder, the koff is the first-order rate constant of dissociation. A low value points to a long-lived complex. In general, kon refers to a measure of how fast the partners come together. A low value points to slow association. What is called stoichiometry N is the number of molecules, sites or subunits per partner or assembly.
